Like-named read-outs stand apart in the source and are kept apart here.
What was measured:
recombinant human IL-17A [1] = biological target: T1, recombinant human IL-17A (human, UniProt Q16552 24-155); assay: competition ELISA, IL-17A binding to coated IL-17RA-Fc
T1 construct: Bought recombinant protein (Peprotech AF-200-17); also called Peprotech AF-200-17

recombinant human IL-17A [2] = biological target: T1, recombinant human IL-17A; assay: cell-based or functional assay
recombinant human IL-17A [3] = biological target: T1, recombinant human IL-17A; assay: SPR (BIAcore T200), IL-17A coupled to CM5 chip, single-cycle kinetics
recombinant human IL-17A [4] = biological target: T1, recombinant human IL-17A; assay: as above; remark: listed apart in the source
recombinant human IL-17A [5] = biological target: T1, recombinant human IL-17A; assay: BIAcore single-cycle kinetics on IL-17A (n=2 per legend)
recombinant human IL-17A [6] = biological target: T1, recombinant human IL-17A; assay: cell-based or functional assay; remark: listed apart in the source
recombinant human IL-17A [7] = biological target: T1, recombinant human IL-17A; assay: BIAcore single-cycle kinetics, ligand Il-17, 1:1 binding fit, 25 C (n=1 per legend)
recombinant human IL-17A [8] = biological target: T1, recombinant human IL-17A; assay: competition ELISA, IL-17A binding to coated IL-17RA-Fc; remark: listed apart in the source
recombinant human IL-17A [9] = biological target: T1, recombinant human IL-17A; assay: SPR (BIAcore T200), IL-17A coupled to CM5 chip, single-cycle kinetics; remark: listed apart in the source
recombinant human IL-17A [10] = biological target: T1, recombinant human IL-17A; assay: cell-based or functional assay; remark: listed apart in the source
recombinant human IL-17A [11] = biological target: T1, recombinant human IL-17A; assay: BIAcore single-cycle kinetics, ligand Il-17, 1:1 binding fit, 25 C (n=1 per legend); remark: listed apart in the source
recombinant human IL-17A [12] = biological target: T1, recombinant human IL-17A; assay: cell-based or functional assay; remark: listed apart in the source
recombinant human IL-17A [13] = biological target: T1, recombinant human IL-17A; assay: BIAcore single-cycle kinetics on IL-17A (n=2 per legend); remark: listed apart in the source
recombinant IL-17RA-Fc = biological target: T2, recombinant IL-17RA-Fc (UniProt Q96F46 33-320); assay: specificity ELISA on coated antigen, VH concentration not given
T2 construct: Bought reagent; also called R & D systems cat #177-IR-100; receptor; not shown: Fc part of the bought fusion, not described

IL-17C [14] = biological target: T3, IL-17C (UniProt Q9P0M4 19-197, limits assumed); assay: as above
T3 sequence (looked up): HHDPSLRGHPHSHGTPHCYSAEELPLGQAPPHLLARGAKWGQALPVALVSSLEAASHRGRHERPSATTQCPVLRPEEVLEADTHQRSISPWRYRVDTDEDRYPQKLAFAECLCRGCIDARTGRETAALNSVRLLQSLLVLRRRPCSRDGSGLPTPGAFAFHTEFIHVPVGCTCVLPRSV

IL-17F [15] = biological target: T4, IL-17F (UniProt Q96PD4 31-163, limits assumed); assay: as above
T4 sequence (looked up): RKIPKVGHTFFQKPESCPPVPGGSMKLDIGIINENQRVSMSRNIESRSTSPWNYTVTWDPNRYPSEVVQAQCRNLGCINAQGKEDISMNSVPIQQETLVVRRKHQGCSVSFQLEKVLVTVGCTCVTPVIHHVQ

murine IL-17A = biological target: T5, murine IL-17A (murine, UniProt Q62386 26-158, limits assumed); assay: as above
T5 sequence (looked up): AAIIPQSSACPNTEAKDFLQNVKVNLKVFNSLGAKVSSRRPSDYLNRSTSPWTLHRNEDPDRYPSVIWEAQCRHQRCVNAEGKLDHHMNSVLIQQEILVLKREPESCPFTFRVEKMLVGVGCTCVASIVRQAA

recombinant human IL-17A [16] = biological target: T1, recombinant human IL-17A; assay: BIAcore single-cycle kinetics on immobilised IL-17A, 1:1 binding fit
recombinant human IL-17A [17] = biological target: T1, recombinant human IL-17A; assay: SPR (BIAcore)
recombinant human IL-17A [18] = biological target: T1, recombinant human IL-17A; assay: VH screening as in examples 7 and 8
recombinant human IL-17A [19] = biological target: T1, recombinant human IL-17A; assay: competition ELISA, IL-17A binding to coated IL-17RA-Fc; FIG. 9A
IL17E = biological target: T6, IL17E; assay: specificity ELISA on coated antigen, VH concentration not given
T6 construct: also called IL-25
T6 chain: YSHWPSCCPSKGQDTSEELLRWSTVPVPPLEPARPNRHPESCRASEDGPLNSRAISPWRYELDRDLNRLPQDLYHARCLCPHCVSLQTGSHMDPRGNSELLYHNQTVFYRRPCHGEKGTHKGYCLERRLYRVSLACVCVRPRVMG

IL-17C [20] = biological target: T3, IL-17C; assay: as above; remark: listed apart in the source
IL-17F [21] = biological target: T4, IL-17F; assay: as above; remark: listed apart in the source
recombinant human IL-17A [22] = biological target: T1, recombinant human IL-17A; assay: BIAcore single-cycle kinetics on immobilised IL-17A, 1:1 binding fit; remark: listed apart in the source

T1 sequence (Q16552 24-155): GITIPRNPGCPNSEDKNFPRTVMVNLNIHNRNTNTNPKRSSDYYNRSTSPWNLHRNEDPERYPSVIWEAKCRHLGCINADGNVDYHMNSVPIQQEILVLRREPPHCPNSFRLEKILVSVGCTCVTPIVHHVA

B1: Family 2 (clone 2.1) (VHH)
VHH: QVQLVESGGGLVQPGGSLRLSCAASGFTFSSYGMGWVRQAPGKGLEWVAKIKQDGSEKDYVDSVKGRFTISRDNAKKSLFLQMNSLRAEDTAVYYCARESIFGIPEDWGQGTLVTVSS
notes: Human single VH domain; also called VH 2.1.1
IC50 (recombinant human IL-17A [1]): 32 nM | Cell assay IC50 (nM), IL-17A-induced IL6 release from HT1080 (recombinant human IL-17A [2]): 8.3 nM | Kd (recombinant human IL-17A [3]): 2 nM | koff (recombinant human IL-17A [3]): 0.00247 s⁻¹ | kon (recombinant human IL-17A [3]): 1.22e+06 M⁻¹ s⁻¹

B2: Family 4 (clone 4.1) (VHH)
VHH: QVQLVESGGGLVQPGGSLRLSCAASGFTFSSYWMNWVRQAPGKGLEWVATIKQDGSEKYYVDSVKGRFTISRDNATNSLFLQMNSLRAEDTAVYYCARGDTIFDGAFDIWGQGTMVTVSS
notes: Human single VH domain
IC50 (recombinant human IL-17A [1]): 3140 nM | Kd (recombinant human IL-17A [3]): 493 nM | koff (recombinant human IL-17A [3]): 0.00289 s⁻¹ | kon (recombinant human IL-17A [3]): 5860 M⁻¹ s⁻¹

B3: VH 3.2.1 (clone 3.2 expressed from phagemid vector: with linker residues and His tag) (VHH)
VHH: QVQLVQSGAEVKKPGASVKVSCKASGYNADAYYINWVRQAPGQGLEWMGSIKPNTGATKYAQKFQGRVTITRDTSISTAYMELSRLRSDDTAVYYCASLDRDTWYPHSYAGWFDAWGQGTLVTVSS
notes: Human single VH domain
Kd (recombinant human IL-17A [4]): 0.23 nM | koff (recombinant human IL-17A [4]): 0.000252 s⁻¹ | kon (recombinant human IL-17A [4]): 1.1e+06 M⁻¹ s⁻¹ | Kd (recombinant human IL-17A [5]): 0.212 nM | Cell assay IC50 (nM), IL-17A-induced IL6 release from HT1080 (recombinant human IL-17A [6]): 2.5 nM | Kd (recombinant human IL-17A [7]): 0.15 nM | koff (recombinant human IL-17A [7]): 0.000349 s⁻¹ | kon (recombinant human IL-17A [7]): 2.28e+06 M⁻¹ s⁻¹ | IC50 (recombinant human IL-17A [8]): 2.5 nM

B4: Family 5 (clone 5.1) (VHH)
VHH: EVQLVESGGGLVQPGGSLRLSCAASGFTFSSYWMSWVRQAPGKGLEWVANIKQDGSEKYYVDSVKGRFTISRDNAKNSLYLQMNSLRAEDTAVYYCAHGQWPFFDYWGQGTMVTVSS
notes: Human single VH domain
IC50 (recombinant human IL-17A [1]): 337 nM | Kd (recombinant human IL-17A [3]): 166 nM | koff (recombinant human IL-17A [3]): 0.0505 s⁻¹ | kon (recombinant human IL-17A [3]): 304000 M⁻¹ s⁻¹

B5: Clone 1.2 (VHH)
VHH: EVQLVESGGGLVQPGGSLRLSCAASGFTFSSYSMYWVRQAPGKGLEWVAEIKQDGSVQYYVSDVKGRFTISRDNAKNSLYLQMNSLRAEDTAVYYCAKGEILPLYFDYWGQGTLVTVSS
Kd (recombinant human IL-17A [9]): 0.555 nM | koff (recombinant human IL-17A [9]): 0.000485 s⁻¹ | kon (recombinant human IL-17A [9]): 874000 M⁻¹ s⁻¹ | EC50 (read off the curve) (recombinant human IL-17A [10]): ~0.8 nM | Kd (recombinant human IL-17A [11]): 0.675 nM | koff (recombinant human IL-17A [11]): 2.26e-05 s⁻¹ | kon (recombinant human IL-17A [11]): 33500 M⁻¹ s⁻¹ | Cell assay IC50 (nM), IL-17A-induced IL6 release from HT1080 (recombinant human IL-17A [12]): 0.4 nM | Kd (recombinant human IL-17A [13]): 0.57 nM

B6: Clone 1.15 (VHH)
VHH: EVQLVESGGGLVQPGGSLRLSCAASGFTFSSYSMYWVRQAPGKGLEWVAEIRQDGSEQYYVDSVKGRFTISRDNAKNSLYLQMNSLRAEDTAVYYCAKGEILPLYFDYWGQGTLVTVSS
notes: Human single VH domain
Kd (recombinant human IL-17A [9]): 0.232 nM | koff (recombinant human IL-17A [9]): 0.000242 s⁻¹ | kon (recombinant human IL-17A [9]): 1.04e+06 M⁻¹ s⁻¹ | Cell assay IC50 (nM), IL-17A-induced IL6 release from HT1080 (recombinant human IL-17A [12]): 2.5 nM | binding result (recombinant IL-17RA-Fc): no binding | binding result (IL-17C [14]): no binding | binding result (IL-17F [15]): no binding | binding result (murine IL-17A): binds

B7: VH 1.3.3 (clone 1.3 with C terminal extension) (VHH)
VHH: EVQLVESGGGLVQPGGSLRLSCAASGFTFSSYSMYWVRQAPGKGLEWVAEIKQDGSVQYYVDSVKGRFTISRDNAKNSLYLQMNSLRAEDTAVYYCAKGEILPLYFDYWGQGTLVTVSS
notes: Human single VH domain
Kd (recombinant human IL-17A [16]): 0.68 nM | kon (recombinant human IL-17A [16]): 750000 M⁻¹ s⁻¹

B8: VH 1.3.2 (clone 1.3 with C terminal extension and His tag) (VHH)
VHH: EVQLVESGGGLVQPGGSLRLSCAASGFTFSSYSMYWVRQAPGKGLEWVAEIKQDGSVQYYVDSVKGRFTISRDNAKNSLYLQMNSLRAEDTAVYYCAKGEILPLYFDYWGQGTLVTVSS
notes: Human single VH domain
Kd (recombinant human IL-17A [17]): 0.63 nM | koff (recombinant human IL-17A [16]): 0.000501 s⁻¹ | kon (recombinant human IL-17A [16]): 799000 M⁻¹ s⁻¹

B9: VH 1.6.1 (clone 1.6 expressed from phagemid vector: with linker residues and His tag) (VHH)
VHH: EVQLVESGGGLVQPGGSLRLSCAASGFTFSSYSMYWVRQAPGKGLEWVAEIKQDGSEQYYVDSVKGRFTISRDNAKNSLYLQMNSLRAEDTAVYYCAKGEILPLYFDYWGQGTLVTVSS
notes: Human single VH domain
Kd (recombinant human IL-17A [9]): 0.627 nM | koff (recombinant human IL-17A [9]): 0.000482 s⁻¹ | kon (recombinant human IL-17A [9]): 770000 M⁻¹ s⁻¹ | fold improved affinity over clone 1.1 (recombinant human IL-17A [18]): ≤ 10 fold | IC50 (recombinant human IL-17A [19]): 5 nM | Kd (recombinant human IL-17A [17]): 0.63 nM | binding result (IL17E): no binding | binding result (IL-17C [20]): no binding | binding result (IL-17F [21]): no binding | Cell assay IC50 (nM), IL-17A-induced IL6 release from HT1080 (recombinant human IL-17A [12]): 1.3 nM

B10: VH 1.10.1 (clone 1.10 expressed from phagemid vector: with linker residues and His tag) (VHH)
VHH: EVQLVESGGGLVQPGGSLRLSCAASGFTFSSYRMYWVRQAPGKGLEWVASIEQDGSEEYYVDSVKGRFTISRDNAKKSLFLQMNSLRAEDTAVYYCAKGEILPLYFDYWGQGTLVTVSS
notes: Human single VH domain
Kd (recombinant human IL-17A [9]): 1.46 nM | koff (recombinant human IL-17A [9]): 0.000966 s⁻¹ | kon (recombinant human IL-17A [9]): 664000 M⁻¹ s⁻¹ | koff (recombinant human IL-17A [22]): 0.000755 s⁻¹ | kon (recombinant human IL-17A [22]): 700000 M⁻¹ s⁻¹ | fold improved affinity over clone 1.1 (recombinant human IL-17A [18]): ≤ 10 fold | IC50 (recombinant human IL-17A [19]): 4 nM | Kd (recombinant human IL-17A [17]): 1 nM | binding result (IL17E): no binding | Cell assay IC50 (nM), IL-17A-induced IL6 release from HT1080 (recombinant human IL-17A [12]): 1.9 nM | binding result (recombinant IL-17RA-Fc): no binding | binding result (IL-17C [14]): no binding | binding result (IL-17F [15]): no binding | binding result (murine IL-17A): binds

B11: VH 1.7.1 (clone 1.7 expressed from phagemid vector: with linker residues and His tag) (VHH)
VHH: QVQLVESGGGLVQPGGSLRLSCAASGFTFSSYGMYWVRQAPGKGLEWVAKIEQDGSEEYYVDSVKGRFTISRDNAKKSLYLQMNSLRAEDTAVYYCAKGEILPLYFDYWGQGTLVTVSS
notes: Human single VH domain
Kd (recombinant human IL-17A [9]): 0.609 nM | koff (recombinant human IL-17A [9]): 0.000466 s⁻¹ | kon (recombinant human IL-17A [9]): 765000 M⁻¹ s⁻¹ | fold improved affinity over clone 1.1 (recombinant human IL-17A [18]): ≤ 10 fold | IC50 (recombinant human IL-17A [19]): 7 nM | Cell assay IC50 (nM), IL-17A-induced IL6 release from HT1080 (recombinant human IL-17A [12]): 2 nM

From patent publication US20200347127A1 (CRESCENDO BIOLOGICS, published 2020)
